What is called Kd is the constant that tells how readily two partners part at equilibrium.

Experimental findings from paper PMC10786891, “Massively parallel profiling of RNA-targeting CRISPR-Cas13d” are described below.

B1: target 2 MT 5'PFS CGA 3'PFS UCA (mixed)
RNA 1: CACCCGUGCAAAAUUGCAGGGGUCUAAAACCUUCUCCAAAUUGUUUCAUCCU
RNA 2: GGGAAUGGAUCCACAUCUACGAAUUCCGAAGGAUGAAACAAUUUGGAGAAGUCAAGAUCGGAAGAGCACACGU
B2: target 2 MT 5'PFS GUG 3'PFS UAA (mixed)
RNA 1: CACCCGUGCAAAAUUGCAGGGGUCUAAAACCUUCUCCAAAUUGUUUCAUCCU
RNA 2: GGGAAUGGAUCCACAUCUACGAAUUCGUGAGGAUGAAACAAUUUGGAGAAGUAAAGAUCGGAAGAGCACACGU
B3: target 2 MT 5'PFS UUC 3'PFS AUA (mixed)
RNA 1: CACCCGUGCAAAAUUGCAGGGGUCUAAAACCUUCUCCAAAUUGUUUCAUCCU
RNA 2: GGGAAUGGAUCCACAUCUACGAAUUCUUCAGGAUGAAACAAUUUGGAGAAGAUAAGAUCGGAAGAGCACACGU
B4: target 2 MT 5'PFS UGA 3'PFS UAA (mixed)
RNA 1: CACCCGUGCAAAAUUGCAGGGGUCUAAAACCUUCUCCAAAUUGUUUCAUCCU
RNA 2: GGGAAUGGAUCCACAUCUACGAAUUCUGAAGGAUGAAACAAUUUGGAGAAGUAAAGAUCGGAAGAGCACACGU
B5: target 2 MT 5'PFS GUA 3'PFS UUA (mixed)
RNA 1: CACCCGUGCAAAAUUGCAGGGGUCUAAAACCUUCUCCAAAUUGUUUCAUCCU
RNA 2: GGGAAUGGAUCCACAUCUACGAAUUCGUAAGGAUGAAACAAUUUGGAGAAGUUAAGAUCGGAAGAGCACACGU
B6: target 2 MT 5'PFS UGA 3'PFS UAC (mixed)
RNA 1: CACCCGUGCAAAAUUGCAGGGGUCUAAAACCUUCUCCAAAUUGUUUCAUCCU
RNA 2: GGGAAUGGAUCCACAUCUACGAAUUCUGAAGGAUGAAACAAUUUGGAGAAGUACAGAUCGGAAGAGCACACGU
B7: target 2 MT 5'PFS AAG 3'PFS CAC (mixed)
RNA 1: CACCCGUGCAAAAUUGCAGGGGUCUAAAACCUUCUCCAAAUUGUUUCAUCCU
RNA 2: GGGAAUGGAUCCACAUCUACGAAUUCAAGAGGAUGAAACAAUUUGGAGAAGCACAGAUCGGAAGAGCACACGU
B8: target 2 MT 5'PFS CUG 3'PFS CCU (mixed)
RNA 1: CACCCGUGCAAAAUUGCAGGGGUCUAAAACCUUCUCCAAAUUGUUUCAUCCU
RNA 2: GGGAAUGGAUCCACAUCUACGAAUUCCUGAGGAUGAAACAAUUUGGAGAAGCCUAGAUCGGAAGAGCACACGU
B9: target 2 MT 5'PFS GAU 3'PFS CGU (mixed)
RNA 1: CACCCGUGCAAAAUUGCAGGGGUCUAAAACCUUCUCCAAAUUGUUUCAUCCU
RNA 2: GGGAAUGGAUCCACAUCUACGAAUUCGAUAGGAUGAAACAAUUUGGAGAAGCGUAGAUCGGAAGAGCACACGU
B10: target 2 MT 5'PFS AGU 3'PFS AUC (mixed)
RNA 1: CACCCGUGCAAAAUUGCAGGGGUCUAAAACCUUCUCCAAAUUGUUUCAUCCU
RNA 2: GGGAAUGGAUCCACAUCUACGAAUUCAGUAGGAUGAAACAAUUUGGAGAAGAUCAGAUCGGAAGAGCACACGU
B11: target 2 MT 5'PFS ACU 3'PFS AGG (mixed)
RNA 1: CACCCGUGCAAAAUUGCAGGGGUCUAAAACCUUCUCCAAAUUGUUUCAUCCU
RNA 2: GGGAAUGGAUCCACAUCUACGAAUUCACUAGGAUGAAACAAUUUGGAGAAGAGGAGAUCGGAAGAGCACACGU
B12: target 2 MT 5'PFS AGU 3'PFS AUA (mixed)
RNA 1: CACCCGUGCAAAAUUGCAGGGGUCUAAAACCUUCUCCAAAUUGUUUCAUCCU
RNA 2: GGGAAUGGAUCCACAUCUACGAAUUCAGUAGGAUGAAACAAUUUGGAGAAGAUAAGAUCGGAAGAGCACACGU
B13: target 2 MT 5'PFS ACU 3'PFS AGC (mixed)
RNA 1: CACCCGUGCAAAAUUGCAGGGGUCUAAAACCUUCUCCAAAUUGUUUCAUCCU
RNA 2: GGGAAUGGAUCCACAUCUACGAAUUCACUAGGAUGAAACAAUUUGGAGAAGAGCAGAUCGGAAGAGCACACGU
B14: target 2 MT 5'PFS GAU 3'PFS CGA (mixed)
RNA 1: CACCCGUGCAAAAUUGCAGGGGUCUAAAACCUUCUCCAAAUUGUUUCAUCCU
RNA 2: GGGAAUGGAUCCACAUCUACGAAUUCGAUAGGAUGAAACAAUUUGGAGAAGCGAAGAUCGGAAGAGCACACGU
B15: target 2 MT 5'PFS CUG 3'PFS CCA (mixed)
RNA 1: CACCCGUGCAAAAUUGCAGGGGUCUAAAACCUUCUCCAAAUUGUUUCAUCCU
RNA 2: GGGAAUGGAUCCACAUCUACGAAUUCCUGAGGAUGAAACAAUUUGGAGAAGCCAAGAUCGGAAGAGCACACGU
B16: target 2 MT 5'PFS GUA 3'PFS AUA (mixed)
RNA 1: CACCCGUGCAAAAUUGCAGGGGUCUAAAACCUUCUCCAAAUUGUUUCAUCCU
RNA 2: GGGAAUGGAUCCACAUCUACGAAUUCGUAAGGAUGAAACAAUUUGGAGAAGAUAAGAUCGGAAGAGCACACGU
B17: target 2 MT 5'PFS ACU 3'PFS AGA (mixed)
RNA 1: CACCCGUGCAAAAUUGCAGGGGUCUAAAACCUUCUCCAAAUUGUUUCAUCCU
RNA 2: GGGAAUGGAUCCACAUCUACGAAUUCACUAGGAUGAAACAAUUUGGAGAAGAGAAGAUCGGAAGAGCACACGU
B18: target 2 MT 5'PFS CUG 3'PFS CCG (mixed)
RNA 1: CACCCGUGCAAAAUUGCAGGGGUCUAAAACCUUCUCCAAAUUGUUUCAUCCU
RNA 2: GGGAAUGGAUCCACAUCUACGAAUUCCUGAGGAUGAAACAAUUUGGAGAAGCCGAGAUCGGAAGAGCACACGU
B19: target 2 MT 5'PFS GCA 3'PFS ACU (mixed)
RNA 1: CACCCGUGCAAAAUUGCAGGGGUCUAAAACCUUCUCCAAAUUGUUUCAUCCU
RNA 2: GGGAAUGGAUCCACAUCUACGAAUUCGCAAGGAUGAAACAAUUUGGAGAAGACUAGAUCGGAAGAGCACACGU
B20: target 2 MT 5'PFS GUA 3'PFS UUC (mixed)
RNA 1: CACCCGUGCAAAAUUGCAGGGGUCUAAAACCUUCUCCAAAUUGUUUCAUCCU
RNA 2: GGGAAUGGAUCCACAUCUACGAAUUCGUAAGGAUGAAACAAUUUGGAGAAGUUCAGAUCGGAAGAGCACACGU
B21: target 2 MT 5'PFS GUG 3'PFS UAC (mixed)
RNA 1: CACCCGUGCAAAAUUGCAGGGGUCUAAAACCUUCUCCAAAUUGUUUCAUCCU
RNA 2: GGGAAUGGAUCCACAUCUACGAAUUCGUGAGGAUGAAACAAUUUGGAGAAGUACAGAUCGGAAGAGCACACGU
B22: target 2 MT 5'PFS GAU 3'PFS CGC (mixed)
RNA 1: CACCCGUGCAAAAUUGCAGGGGUCUAAAACCUUCUCCAAAUUGUUUCAUCCU
RNA 2: GGGAAUGGAUCCACAUCUACGAAUUCGAUAGGAUGAAACAAUUUGGAGAAGCGCAGAUCGGAAGAGCACACGU
B23: target 2 MT 5'PFS AAG 3'PFS CAG (mixed)
RNA 1: CACCCGUGCAAAAUUGCAGGGGUCUAAAACCUUCUCCAAAUUGUUUCAUCCU
RNA 2: GGGAAUGGAUCCACAUCUACGAAUUCAAGAGGAUGAAACAAUUUGGAGAAGCAGAGAUCGGAAGAGCACACGU
B24: target 2 MT 5'PFS AUG 3'PFS ACG (mixed)
RNA 1: CACCCGUGCAAAAUUGCAGGGGUCUAAAACCUUCUCCAAAUUGUUUCAUCCU
RNA 2: GGGAAUGGAUCCACAUCUACGAAUUCAUGAGGAUGAAACAAUUUGGAGAAGACGAGAUCGGAAGAGCACACGU
B25: target 1 del4,del7 (mixed)
RNA 1: CACCCGUGCAAAAAUGCAGGGGUCUAAAACUGAGCGGAUAACCUCUCUAUGG
RNA 2: GGGAAUGGAUCCACAUCUACGAAUUCGUACCAUAGAGAGGUUAUCGUCACCGAGAUCGGAAGAGCACACGU
B26: target 1 insU 3' of 21,insC 3' of 19 (mixed)
RNA 1: CACCCGUGCAAAAAUGCAGGGGUCUAAAACUGAGCGGAUAACCUCUCUAUGG
RNA 2: GGGAAUGGAUCCACAUCUACGAAUUCGUACCUAUCAGAGAGGUUAUCCGCUCACCGAGAUCGGAAGAGCACACGU
B27: target 1 U3G,G17C (mixed)
RNA 1: CACCCGUGCAAAAAUGCAGGGGUCUAAAACUGAGCGGAUAACCUCUCUAUGG
RNA 2: GGGAAUGGAUCCACAUCUACGAAUUCGUACCAUACAGAGGUUAUCCGCGCACCGAGAUCGGAAGAGCACACGU

The data set deals with T1, EsCas13d, nuclease-dead (Eubacterium siraeum, UniProt B0MS50, R295A;H300A;R849A;H854A).
T1 sequence: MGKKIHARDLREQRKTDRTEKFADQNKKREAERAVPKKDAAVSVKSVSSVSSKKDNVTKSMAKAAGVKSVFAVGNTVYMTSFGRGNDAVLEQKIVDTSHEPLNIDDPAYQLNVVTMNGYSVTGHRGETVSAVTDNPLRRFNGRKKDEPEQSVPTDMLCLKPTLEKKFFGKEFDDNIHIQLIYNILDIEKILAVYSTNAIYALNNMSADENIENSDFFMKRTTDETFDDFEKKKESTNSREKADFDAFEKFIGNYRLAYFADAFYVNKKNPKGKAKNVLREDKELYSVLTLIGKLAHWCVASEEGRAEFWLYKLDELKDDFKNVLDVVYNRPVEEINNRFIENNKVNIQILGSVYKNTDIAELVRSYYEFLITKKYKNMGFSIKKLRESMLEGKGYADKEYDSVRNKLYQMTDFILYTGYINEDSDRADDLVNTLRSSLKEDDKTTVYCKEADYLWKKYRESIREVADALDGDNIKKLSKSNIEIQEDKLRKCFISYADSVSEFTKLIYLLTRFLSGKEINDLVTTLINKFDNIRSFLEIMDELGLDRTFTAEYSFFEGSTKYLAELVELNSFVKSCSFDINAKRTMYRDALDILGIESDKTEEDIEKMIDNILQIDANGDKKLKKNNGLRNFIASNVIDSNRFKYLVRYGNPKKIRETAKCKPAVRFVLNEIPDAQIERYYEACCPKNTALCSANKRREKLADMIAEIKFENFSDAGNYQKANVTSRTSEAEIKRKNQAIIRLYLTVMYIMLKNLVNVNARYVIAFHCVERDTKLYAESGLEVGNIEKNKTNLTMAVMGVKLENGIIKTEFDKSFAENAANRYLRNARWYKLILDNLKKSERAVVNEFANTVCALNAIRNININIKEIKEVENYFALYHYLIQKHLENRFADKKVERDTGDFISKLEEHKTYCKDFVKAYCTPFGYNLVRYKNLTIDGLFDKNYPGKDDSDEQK
In words: crRNA (strand 1, pre-loaded); Mg2+; 40 mM Tris-HCl pH 7.5, 150 mM NaCl, 6 mM MgCl2, 1 mM DTT, 0.1% Tween-20, 0.2 mg/ml BSA; 25 C; 10 min per concentration, then washed. The settings on record: tags: His6-TwinStrep-SUMO cleaved; N-terminal SNAP kept (SNAP-Surface 488); label: 3' end held by stalled T7 RNA polymerase.
As to B1, the Kd was roughly 26 nM.
The result for B2 reads 9 ± 0.7 nM; that for B3, 16 ± 5 nM; that for B4, 6 ± 1.3 nM.
The result for B5 reads 22 ± 4 nM; that for B6, 9.1 ± 1.6 nM; that for B7, 2.9 ± 1 nM.
For the molecule B8, the affinity, expressed as Kd, was 57 ± 22 nM.
For B9 the value was 14.1 ± 2.6 nM; for B10, 16.7 ± 3.2 nM; for B11, 4.5 ± 0.6 nM.
The result for B12 reads 10.3 ± 1.5 nM; that for B13, 3.18 ± 0.3 nM.
Take B14: the affinity, expressed as Kd, was 10.9 ± 1.4 nM.
Consider B15, for which binding was characterised by a dissociation constant (Kd) of 14.9 ± 3.1 nM.
B16 returned a Kd of 6.1 ± 0.7 nM.
The result for B17 reads 3.7 ± 0.5 nM; that for B18, 4.06 ± 0.2 nM.
Turning to B19, the Kd is 13.2 ± 1.8 nM.
For B20, the affinity, expressed as Kd, was 42 ± 11 nM.
Regarding B21, the affinity, expressed as Kd, was 15.1 ± 1.5 nM.
In turn, B22 showed a Kd of 12.7 ± 2 nM.
The molecule B23 came in with a Kd of 4.2 ± 0.7 nM.
The result for B24 reads 12.6 ± 2.1 nM; that for B25, 5.34 ± 0.24 nM.
B26 gave a Kd of roughly 100 nM.
For the molecule B27, the dissociation constant (Kd) was found to be 36.7 ± 2.8 nM.
